According to the DeepSol protein solubility set:

assay: soluble on expression in E. coli; label from the status in PepcDB or PDB records

| Sequence | soluble on expression in E. coli |
| --- | --- |
| MRDTIPVTILSGSLGAGKTTLLNHLLTEAGDRDIAVLVNDMGTVNVDAELIAEGSELDVDDGVAELSNGCICCELQDDLETAVVRLADDRDFDALVVESSGISEPAPVARLFTTESRVAALYRVDTLVTVLDTRLFLDSFAGETPERRGSGEASADGDGDDTEADGADRPLSDLMVEQVELSNLVVLNKTDLCTDEEMDEAEELVRALQPDAETIRTTFSQVDPDRLFDRALFDQTEISDLPGWKRALAESGHGHGEGSHDHGGDSHETDAHEGDTGHGHDDHHHPEEVYGVTSFTYRRRRPFHPDRLAEVLQDLPSGVVRSKGTVWLAGSERRVVIGQAGPSIRAEAQGPWIASLPEVEQDMYRSNRPELDWHDEHGDRRTELVFIGTDYDESALRTALDDALVTDEEWTESESLTGPFPAEQGEEAVIRSP | not soluble |
| MGSDKIHHHHHHANNDEWVTCPPGGILAIGTMKIPNADTPRDFFIALDNGDNVLPADTADIRNRKYTVAEGQRVFVGYLQMGKEKPGYENGKIFTIEDILTKEIIPLTEATADSIGDDRINVTAHALTKDYLTIEYQYLGSMNENKKHMLNLVQNEITGPIKDDGYIYLEFRHNAFNDSPNQLGSSLVSFKLDSIAEQLATAKGIKLRVNTIYDNIQYVTIDINEDKNLKIKSFHSQ | not soluble |
| MSCCFSKKLFGRRSKREDRYKVSEDAVPKPEEGGEPPKYSWDRREKVNAEDFTIANIHNTTLKKESKDGGPLQMENCTDSTILYLYQTSQVIIDDCRHCTIVLGPAAGSVFVRDCANCTIFTSCQQLRTRDCTSIRISILCPTEPIVENSSDIHFFHLAMRYPELKDQMHAVGLRPFTNRIASVHDFTPAGVNGKGNFRVTPEVVQISDGQEEILRAKGVILKPSPADFIPRFTDTTDPDPTFLYVLGKSEPVDELGDRAIELLHAIYKSGMQVMGTCDLETSTVDSKLVPFAGQAERMILFQLKGNLANLECDVEFDVMSENDLVPLRNLLIHLEGKKNG | not soluble |
| MGSDKIHHHHHHMSEITTLQPSLLWKWFDQICAIPHPSHYEDTLANFIVNWAKEKHFFVERDEVGNVLIRKPATKGMENHTPVVLQAHLDMVPQANEGNPHDFTKDPIQPYIDGEWVKARGTTLGSDNGIGLASTLAVLESNDLAHPPLEVLLTMTEETGMDGAKGLRHNWLQSEILINTDTEEIGEIYIGCAGGINANFEIPVQYETNTFEHSAQITLKGLRGGHSGGDIHTGRANAIKVLARVLAKLSQNQPHFALSEIRGGSIRNAIPREAAAVLAFNGDVKTIESAVENLAVVLKEELAIAEPNFTLFVESAEKAPTVFTAQSTQTVINALNVLPNGVIRNSDVVKNVVESSLSVGVLKTEGNVVKSTILVRSLIESGKYYVTEMLSSLAILANAKVEFSAPYPGWQPVNDSTILDVTRKHYAEVLGEQPVVKVIHAGLECGLLKEHYPNIEMISVGPTIRNAHSPDEKVEIATVQTYWDLLTRVLADIPAK | not soluble |
| MVAHSSVEGNQGIEDRQVSTEASSDVFQSQRSRPRQSTVAFQTHFKPFNYARDFKIISNTTSMLEESGFYWGPMTVEEAHLKLKKESVGTFLIRDSRQSDVFFTLSYKAQNGPVSIRINFKNSKFSLTGSKESFDSLFKLLEHYISSPKKGLIRPCRKEPVQSLQQLCRRQIMERCDGKDIDCIPVQPILKDFLHAFPHPL | not soluble |
| MRGSHHHHHHMSIITDVYAREVLDSRGNPTLEVEVYTESGAFGRGMVPSGASTGEHEAVELRDGDKSRYGGLGTQKAVDNVNNIIAEAIIGYDVRDQQAIDRAMIALDGTPNKGKLGANAILGVSIAVARAAADYLEIPLYSYLGGFNTKVLPTPMMNIINGGSHSDAPIAFQEFMILPVGAPTFKEALRYGAEIFHALKKILKSRGLETAVGDEGGFAPRFEGTEDGVETILAAIEAAGYVPGKDVFLGFDCASSEFYDKERKVYDYTKFEGEGAAVRTSAEQIDYLEELVNKYPIITIEDGMDENDWDGWKALTERLGKKVQLVGDDFFVTNTDYLARGIQEGAANSILIKVNQIGTLTETFEAIEMAKEAGYTAVVSHRSGETEDSTIADIAVATNAGQIKTGSLSRTDRIAKYNQLLRIEDQLGEVAEYRGLKSFYNLKK | soluble |
| MSHCSCHDKPQHSLLPAAYRILSITRHTPLEWNFRVAVDFPAHWGQFVEVSLPRVGEAPISVSDYGDGWIDLLIRNVGKVTSALFTLKEGDNVWLRGCYGNGYPVDTLRHKPLLVVAGGTGVAPVKGLMRYFVENPQEIGQLDMILGYKNRDCVLYKEEMATWRGKHNLVLTLDEGEADDRYQIGRVTDRLADMTLSDIDTMQAIVVGPPIMITFTVKMLLQKGLKPEQIWVDYERRMACSVGKCGHCRMGEVYVCTDGPIFNYAVAQRFAD | not soluble |
| MDFHIRKATNSDAEAIQHVATTSWHHTYQDLIPSDVQDDFLKRFYNVETLHNRISATPFAVLEQADKVIGFANFIELEKGKSELAAFYLLPEVTQRGLGTELLEVGMTLFHVPLPMFVNVEKGNETAIHFYKAKGFVQVEEFTEDFYGYPLETIRFNLNHHAFEEE | not soluble |
| NVAYPLGEGLLSFAESLESQKIHFTTEVITSRIEPANRYVAEKLRITPGQDILYLERLRSIGDEKAMLIENRINIELCPGIVEIDFNQHNLFPTIESLSKRKIRYSESRYAARLIGNERGHFLDISEDAPVLHLEQLVFFSRELPVEFGNVWLKGNKYYLGTVLQRRELS | soluble |
| MPLTLTDRYRGSLLGLACGDALGTSVEFKPRGSFPPVTDLLGGGPFNLKAGQWTDDTSMALCLGESLLRKDGFDPADQMGRYLNWWQWGYLSATGECFDIGMTVRQALADYQEHGQPLAGSSDPQTAGNGSLMRLAPVVLFHYPDLAQVREFAGASSRTTHGAAEAIECCQLLAGLIAKALDGASKQQLQRLDAQGFRESKVAALAQGNYLDKTRDQIRGNGYCVDSLEAALWCFQHSDSYAEAVLAAANLGDDADTTAAIVGQLAGAFYGAQGIPPHWLAKLHMGEEIQAMADDLLAAARRRAPARPLHGSCLCKAVQYRVDRLDMPIGHCHCQTCRKAHAAAFASTAGVMREHFQWTQGQERLSTYESSPGKLRHFCSVCGSHLLAERPGQPHVILRVATLDDDPGQTPQVHIWTSHDVPWLADEALQRWPEWQPSRGLEHHHHHH | not soluble |
| MAHHHHHHMATPRHGDLDSICSLSSSENSPRGGGQSSERLIDLLTRPCAQGGYGGRLNYTGFATLAASLGWNQEDMDDCWYDIVMGEPCAEAVDMKRVAECVCSYCLASPLPILEHSTLAKSSAAKPATPPRLPHASRERSTTVLLSPPTPRFRRAESVASTLPKTGDKQRVTTATASPSQACAHRRCTAPNVFPRYAVETVSSEQKKASLSPGRGSHRPHNRRTTAKSSRQTSPAPTLSQTSGPSGCSVFSRLYEKGMEQHRKRIAVKPVDSDAAECTFQPHITPYTPKAADTASVHYNKPTESYFAKLTAPGTPPDAICASPETPRVTYHPAPGPSSDVPAGYVEGVARLRSYIASRYAHATFASSLRGSSSADVAHLVEAPILRLPVTVRGVTDAVDVRLASPDTRASLGRECSVGPRRPCFRQRCEARHVSFPSPSRVRFQS | soluble |
| GHDEIGQLATTFNHLTRELEDAQAMTEGERRKLASVIAYMTDGVIATNRNGAIILLNSPALELLNVSRETALEMPITSLLGLQENYTFEDLVEQQDSMLLEIERDDELTVLRVNFSVIQREH | not soluble |
| TINPVMQQVAYDQLTAKGYTGSVVAIEPSTGRILTMVSTPSYDPNSLASHDGTETTQAWEALNADPEKPLINRAVSQTYPPGSTFKVVVTAAALAAGTTPDTQLTAAPQITLPGTSTTLENYNGSTCGGAPTASLREAFARSCNTAFVELGVKTGTDAVSDQSSALGIGGQMPGVPFPVADSTIGSIPDDAALGQSSIGQRDVALTPLQNAMIAATVANGGVRMQPQLVSELQGPDLSNLATTNPVSEGQAMSSQVAATLTDLMIGSENNTSGEGKIPGVQIASKTGTAEHGTDPRNTPPHAWYIGFAPAQNPTVAIAVIVEDGGDRALAATGGSVAAPIGRAVIAAGLQGG | not soluble |
| MKIDLNCDLGEGFGVWQMGDDAAMMQIATSVNIACGFHAGDPDIMHATVKLAKQNGVAIGAHPGFRDLHGFGRRPVPGITAAEIENLVAYQIGALQAVAALAGHKVTHVKAHGALSNVACEDDMTARAIASAIKAVDPSLVFVVLANSKLMLAGEAAGLPLAHEVFADRAYEDDGNLVSRKKPGAVLHDPNEIAERVLRMAQDGAVVSVTGKVIKMRTDTVCIHGDTKGAVEIARGVRRKLEASGITVAPFAGTLEHHHHHH | soluble |
| MGSDKIHHHHHHMPLKSSYSDQLKKTDQSLIALLSDRISLLASEQPSLDEQLASVAPLLAQAGIPESVWAGVVNSCHASLTPKSAINHASPRQVTIIGGRGRMGRLFQEQLSLVGHNVSILEHEDWEYAEQLLSQAELVLVSVPIEHTVDVIKRAAKYLASNTALCDITSIKTQPTQAMLEHHCGPVMGLHPMFGPNIKSFLGQKVVVCPGRNDDSFQWLLDFLKSKGGELIVCTPEEHDRMMVIIQATQHFCRFSLGVFLAQARVEIEQSLTMSTPNYRQEIDIVKRLFAQNPNLCVDIMLATEERCNAISFLANTYSRLARLVARKDREALIKEFENTQSFFEGKINSFLQPLNTTALKRDFKPQNIGI | not soluble |
| MDDSTLRRKYPHHEWHAVNEGDSGAFVYQLTGGPEPQPELYAKIAPRAPENSAFDLSGEADRLEWLHRHGIPVPRVVERGADDTAAWLVTEAVPGVAAAEEWPEHQRFAVVEAMAELARALHELPVEDCPFDRRLDAAVAEARRNVAEGLVDLDDLQEERAGWTGDQLLAELDRTRPEKEDLVVCHGDLCPNNVLLDPGTCRVTGVIDVGRLGVADRHADIALAARELEIDEDPWFGPAYAERFLERYGAHRVDKEKLAFYQLLDEFF | not soluble |
| MDTAGDTKTTDDGGVVNITYMHRLPDSEGMTLVNDIVAKWNKQHPDIQVKATKFDGKASDMIKKLETDVKSGEAPDLAQVGYAELPEVFTKGLLQDVTQYAEQYKNDFASGPYSLVQVGGKAYGLPQDTGPLVYFYNKAEFEKLGITEIPQTADEFIAAAKTAAAAGKYIMSYQPDEAGNMISGLAGASGGWYKVKGDSWVVNTETDGSKATADFYQQLLDAKAATTNPRWDPSFDASIKDGSLIGTVAAAWEAPLFMTSSGGTGSGEWQVAQLGDWFGNAGKTGPDGGSAVAVLKNSKHPKEAMEFLDWFNTQVPDLVSQGLVPAATTEDAETPSEWSTFFGGQDIMKEFKTANNNMGDFTYMPGFSAVAAKMNETAAKATDGSGKVADIFSDAQTTSVDTLKNFGLSVSE | soluble |
| MATVIHNPLKALGDQFYKEAIEHCRSYNSRLSAERSVRLPFLDSQTGVAQNNCYIWMEKRHRGPGLAPGQLYTYPARCWRKKRRLHPPEDPKLRLLEIKPEVELPLKKDGFTSESTTLEALLRGEGVEKKVDAREEESIQEIQRVLENDENVEEGNEEEDLEEDIPKRKDRTRGRARCPLPSLHCFSSLPSAVIDAKEWGGGGKWEATVAYRKKKIYPVHIFNMLEHHHHHH | not soluble |
| MGSDKIHHHHHHMPTPHLDTALSGPILDLERCILNAMPSIEQWLRNEWQTHAAPFYCSVDLRNSGFKLAPVDTNLFPGGFNNLNREFMPLCVQAMMAAIDKICTGARSVLLIPESHTRNIFYLQNLAALHAIMRHAGIHVRIGTLLPEITAPTALDLPGGNKLTLEPIQRKGNRVVLEDFDPCVVLLNNDLSTGTPAVLQNLEQTVIPPLHAGWTSRRKSHHFTAYDNVSQQFASLIGIDPWLINPYFASCGKINFREKKGEDCVANTVDEILHQIREKYAEYGVRKDPFVIVKADAGTYGMGIMTVKDGAQVRTLSRKQRNKMAVVKEGLEVTDIMVQEGVYTFENVDDAVAEPVIYMIDRYVVGGFYRVHTERGVDENLNAPGMHFVPLAFEDTCLLPDREAQPGCSANRFYAYGVIARLALLAAAQELEKSEARIEAIMA | not soluble |
